Numbered stars: 1 amine (or outer) side, 2 acyl side, 3 side chain; on linkers, the order of the positions; unused ones are H or OH. Bridge positions count the residues as written; N and C are the ends. Side chains are listed from the residue outwards. Ends that are not written are not given here. * marks the point of attachment. C20 diacid = O=C(O)CCCCCCCCCCCCCCCCCCC(=O)*; γGlu = O=C(O)[C@H](CCC(=O)[*:2])N[*:1]; AEEA = NCCOCCOCC(=O)O
T1: human amylin receptor (human, UniProt P30988 25-474; O60896 24-148, limits assumed)
T1 construct: whole, on cells; Calcitonin receptor plus RAMP-3 gives the amylin 3(a) receptor; membranes of Amylin 3(a)/CRE-luc cells were used; also called hAmylin-R; hAmylinR
T1 sequence (looked up) 1: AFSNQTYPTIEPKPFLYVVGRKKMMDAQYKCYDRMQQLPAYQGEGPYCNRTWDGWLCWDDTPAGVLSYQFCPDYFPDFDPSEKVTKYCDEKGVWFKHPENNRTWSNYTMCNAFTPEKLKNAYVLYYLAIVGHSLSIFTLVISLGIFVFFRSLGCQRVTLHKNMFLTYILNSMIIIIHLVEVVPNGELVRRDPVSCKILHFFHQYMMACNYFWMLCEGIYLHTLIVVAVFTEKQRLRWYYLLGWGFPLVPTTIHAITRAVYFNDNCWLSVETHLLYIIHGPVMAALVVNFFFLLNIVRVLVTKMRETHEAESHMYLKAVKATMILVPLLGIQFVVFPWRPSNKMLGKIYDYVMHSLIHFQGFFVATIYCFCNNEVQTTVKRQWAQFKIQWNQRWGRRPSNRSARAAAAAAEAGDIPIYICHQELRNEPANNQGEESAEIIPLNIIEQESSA
T1 sequence (looked up) 2: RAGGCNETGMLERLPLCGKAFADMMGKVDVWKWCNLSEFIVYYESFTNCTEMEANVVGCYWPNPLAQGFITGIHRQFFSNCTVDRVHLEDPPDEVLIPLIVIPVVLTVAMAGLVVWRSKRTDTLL


biological target: T1, human amylin receptor; test: SPA competition binding, displacement of 125I-rat amylin from membranes with human amylin 3(a) receptor (Assay V)
Outline: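 Cell membranes were prepared by homogenisation in Na-HEPES/EDTA buffer, pH 7.4, and stored at −80° C. They were then coupled to SPA beads at 35 ng/μL final and exposed to compounds in assay buffer containing CaCl2, MgCl₂, OA and Tween20. After 120 min at 25° C, plates were counted and IC₅₀ derived.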

| Binder | IC50 [nM] |
| --- | --- |
| K([AEEA-γGlu-C20 diacid])CNTATCATQRLAHFLRHSSPNFGAIPSSTNVGRNTY-NH2 (disulfide 2-7; N-terminus assumed; SMILES CC[C@H](C)[C@H](NC(=O)[C@H](C)NC(=O)CNC(=O)[C@H](Cc1ccccc1)NC(=O)[C@H](CC(N)=O)NC(=O)[C@@H]1CCCN1C(=O)[C@H](CO)NC(=O)[C@H](CO)NC(=O)[C@H](Cc1c[nH]cn1)NC(=O)[C@H](CCCNC(=N)N)NC(=O)[C@H](CC(C)C)NC(=O)[C@H](Cc1ccccc1)NC(=O)[C@H](Cc1c[nH]cn1)NC(=O)[C@H](C)NC(=O)[C@H](CC(C)C)NC(=O)[C@H](CCCNC(=N)N)NC(=O)[C@H](CCC(N)=O)NC(=O)[C@@H](NC(=O)[C@H](C)NC(=O)[C@@H]1CSSC[C@H](NC(=O)[C@@H](N)CCCCNC(=O)COCCOCCNC(=O)CC[C@H](NC(=O)CCCCCCCCCCCCCCCCCCC(=O)O)C(=O)O)C(=O)N[C@@H](CC(N)=O)C(=O)N[C@@H]([C@@H](C)O)C(=O)N[C@@H](C)C(=O)N[C@@H]([C@@H](C)O)C(=O)N1)[C@@H](C)O)C(=O)N1CCC[C@H]1C(=O)N[C@@H](CO)C(=O)N[C@@H](CO)C(=O)N[C@H](C(=O)N[C@@H](CC(N)=O)C(=O)N[C@H](C(=O)NCC(=O)N[C@@H](CCCNC(=N)N)C(=O)N[C@@H](CC(N)=O)C(=O)N[C@H](C(=O)N[C@@H](Cc1ccc(O)cc1)C(N)=O)[C@@H](C)O)C(C)C)[C@@H](C)O, also called 14H, 17R, 21P, 27P, 34R) | 0.743 |
| K([AEEA-γGlu-C20 diacid])CNTATCATQRLAKFLRHSSPNFGAIPSSTPVGSNTY-NH2 (disulfide 2-7; N-terminus assumed; SMILES CC[C@H](C)[C@H](NC(=O)[C@H](C)NC(=O)CNC(=O)[C@H](Cc1ccccc1)NC(=O)[C@H](CC(N)=O)NC(=O)[C@@H]1CCCN1C(=O)[C@H](CO)NC(=O)[C@H](CO)NC(=O)[C@H](Cc1c[nH]cn1)NC(=O)[C@H](CCCNC(=N)N)NC(=O)[C@H](CC(C)C)NC(=O)[C@H](Cc1ccccc1)NC(=O)[C@H](CCCCN)NC(=O)[C@H](C)NC(=O)[C@H](CC(C)C)NC(=O)[C@H](CCCNC(=N)N)NC(=O)[C@H](CCC(N)=O)NC(=O)[C@@H](NC(=O)[C@H](C)NC(=O)[C@@H]1CSSC[C@H](NC(=O)[C@@H](N)CCCCNC(=O)COCCOCCNC(=O)CC[C@H](NC(=O)CCCCCCCCCCCCCCCCCCC(=O)O)C(=O)O)C(=O)N[C@@H](CC(N)=O)C(=O)N[C@@H]([C@@H](C)O)C(=O)N[C@@H](C)C(=O)N[C@@H]([C@@H](C)O)C(=O)N1)[C@@H](C)O)C(=O)N1CCC[C@H]1C(=O)N[C@@H](CO)C(=O)N[C@@H](CO)C(=O)N[C@H](C(=O)N1CCC[C@H]1C(=O)N[C@H](C(=O)NCC(=O)N[C@@H](CO)C(=O)N[C@@H](CC(N)=O)C(=O)N[C@H](C(=O)N[C@@H](Cc1ccc(O)cc1)C(N)=O)[C@@H](C)O)C(C)C)[C@@H](C)O, also called 14K, 17R, 21P, 27P, 31P) | 0.791 |
| K([AEEA-γGlu-C20 diacid])CNTATCATQRLAHFLRHSSPNFGAIPSSTNVGHNTY-NH2 (disulfide 2-7; N-terminus assumed; SMILES CC[C@H](C)[C@H](NC(=O)[C@H](C)NC(=O)CNC(=O)[C@H](Cc1ccccc1)NC(=O)[C@H](CC(N)=O)NC(=O)[C@@H]1CCCN1C(=O)[C@H](CO)NC(=O)[C@H](CO)NC(=O)[C@H](Cc1c[nH]cn1)NC(=O)[C@H](CCCNC(=N)N)NC(=O)[C@H](CC(C)C)NC(=O)[C@H](Cc1ccccc1)NC(=O)[C@H](Cc1c[nH]cn1)NC(=O)[C@H](C)NC(=O)[C@H](CC(C)C)NC(=O)[C@H](CCCNC(=N)N)NC(=O)[C@H](CCC(N)=O)NC(=O)[C@@H](NC(=O)[C@H](C)NC(=O)[C@@H]1CSSC[C@H](NC(=O)[C@@H](N)CCCCNC(=O)COCCOCCNC(=O)CC[C@H](NC(=O)CCCCCCCCCCCCCCCCCCC(=O)O)C(=O)O)C(=O)N[C@@H](CC(N)=O)C(=O)N[C@@H]([C@@H](C)O)C(=O)N[C@@H](C)C(=O)N[C@@H]([C@@H](C)O)C(=O)N1)[C@@H](C)O)C(=O)N1CCC[C@H]1C(=O)N[C@@H](CO)C(=O)N[C@@H](CO)C(=O)N[C@H](C(=O)N[C@@H](CC(N)=O)C(=O)N[C@H](C(=O)NCC(=O)N[C@@H](Cc1c[nH]cn1)C(=O)N[C@@H](CC(N)=O)C(=O)N[C@H](C(=O)N[C@@H](Cc1ccc(O)cc1)C(N)=O)[C@@H](C)O)C(C)C)[C@@H](C)O, also called 14H, 17R, 21P, 27P, 34H) | 0.29 |

Binders with a lower IC50, results first:

| IC50 [nM] | Binder |
| --- | --- |
| 0.088 | K([AEEA-γGlu-C20 diacid])CNTATCATQRLAHFLRHSSPNFGAIPSSTNVGPNTY-NH2 (disulfide 2-7; N-terminus assumed; SMILES CC[C@H](C)[C@H](NC(=O)[C@H](C)NC(=O)CNC(=O)[C@H](Cc1ccccc1)NC(=O)[C@H](CC(N)=O)NC(=O)[C@@H]1CCCN1C(=O)[C@H](CO)NC(=O)[C@H](CO)NC(=O)[C@H](Cc1c[nH]cn1)NC(=O)[C@H](CCCNC(=N)N)NC(=O)[C@H](CC(C)C)NC(=O)[C@H](Cc1ccccc1)NC(=O)[C@H](Cc1c[nH]cn1)NC(=O)[C@H](C)NC(=O)[C@H](CC(C)C)NC(=O)[C@H](CCCNC(=N)N)NC(=O)[C@H](CCC(N)=O)NC(=O)[C@@H](NC(=O)[C@H](C)NC(=O)[C@@H]1CSSC[C@H](NC(=O)[C@@H](N)CCCCNC(=O)COCCOCCNC(=O)CC[C@H](NC(=O)CCCCCCCCCCCCCCCCCCC(=O)O)C(=O)O)C(=O)N[C@@H](CC(N)=O)C(=O)N[C@@H]([C@@H](C)O)C(=O)N[C@@H](C)C(=O)N[C@@H]([C@@H](C)O)C(=O)N1)[C@@H](C)O)C(=O)N1CCC[C@H]1C(=O)N[C@@H](CO)C(=O)N[C@@H](CO)C(=O)N[C@H](C(=O)N[C@@H](CC(N)=O)C(=O)N[C@H](C(=O)NCC(=O)N1CCC[C@H]1C(=O)N[C@@H](CC(N)=O)C(=O)N[C@H](C(=O)N[C@@H](Cc1ccc(O)cc1)C(N)=O)[C@@H](C)O)C(C)C)[C@@H](C)O, also called 14H, 17R, 21P, 27P, 34P) |
| 0.133 | K([AEEA-γGlu-C20 diacid])CNTATCATQRLAHFLRHSSPNFGAIPSSTNVGSNTY-NH2 (disulfide 2-7; N-terminus assumed; SMILES CC[C@H](C)[C@H](NC(=O)[C@H](C)NC(=O)CNC(=O)[C@H](Cc1ccccc1)NC(=O)[C@H](CC(N)=O)NC(=O)[C@@H]1CCCN1C(=O)[C@H](CO)NC(=O)[C@H](CO)NC(=O)[C@H](Cc1c[nH]cn1)NC(=O)[C@H](CCCNC(=N)N)NC(=O)[C@H](CC(C)C)NC(=O)[C@H](Cc1ccccc1)NC(=O)[C@H](Cc1c[nH]cn1)NC(=O)[C@H](C)NC(=O)[C@H](CC(C)C)NC(=O)[C@H](CCCNC(=N)N)NC(=O)[C@H](CCC(N)=O)NC(=O)[C@@H](NC(=O)[C@H](C)NC(=O)[C@@H]1CSSC[C@H](NC(=O)[C@@H](N)CCCCNC(=O)COCCOCCNC(=O)CC[C@H](NC(=O)CCCCCCCCCCCCCCCCCCC(=O)O)C(=O)O)C(=O)N[C@@H](CC(N)=O)C(=O)N[C@@H]([C@@H](C)O)C(=O)N[C@@H](C)C(=O)N[C@@H]([C@@H](C)O)C(=O)N1)[C@@H](C)O)C(=O)N1CCC[C@H]1C(=O)N[C@@H](CO)C(=O)N[C@@H](CO)C(=O)N[C@H](C(=O)N[C@@H](CC(N)=O)C(=O)N[C@H](C(=O)NCC(=O)N[C@@H](CO)C(=O)N[C@@H](CC(N)=O)C(=O)N[C@H](C(=O)N[C@@H](Cc1ccc(O)cc1)C(N)=O)[C@@H](C)O)C(C)C)[C@@H](C)O, also called 14H, 17R, 21P, 27P) |
| 0.122 | K([AEEA-γGlu-C20 diacid])CNTATCATQRLAHFLRHSSPNFGAIPSSTPVGSNTY-NH2 (disulfide 2-7; N-terminus assumed; SMILES CC[C@H](C)[C@H](NC(=O)[C@H](C)NC(=O)CNC(=O)[C@H](Cc1ccccc1)NC(=O)[C@H](CC(N)=O)NC(=O)[C@@H]1CCCN1C(=O)[C@H](CO)NC(=O)[C@H](CO)NC(=O)[C@H](Cc1c[nH]cn1)NC(=O)[C@H](CCCNC(=N)N)NC(=O)[C@H](CC(C)C)NC(=O)[C@H](Cc1ccccc1)NC(=O)[C@H](Cc1c[nH]cn1)NC(=O)[C@H](C)NC(=O)[C@H](CC(C)C)NC(=O)[C@H](CCCNC(=N)N)NC(=O)[C@H](CCC(N)=O)NC(=O)[C@@H](NC(=O)[C@H](C)NC(=O)[C@@H]1CSSC[C@H](NC(=O)[C@@H](N)CCCCNC(=O)COCCOCCNC(=O)CC[C@H](NC(=O)CCCCCCCCCCCCCCCCCCC(=O)O)C(=O)O)C(=O)N[C@@H](CC(N)=O)C(=O)N[C@@H]([C@@H](C)O)C(=O)N[C@@H](C)C(=O)N[C@@H]([C@@H](C)O)C(=O)N1)[C@@H](C)O)C(=O)N1CCC[C@H]1C(=O)N[C@@H](CO)C(=O)N[C@@H](CO)C(=O)N[C@H](C(=O)N1CCC[C@H]1C(=O)N[C@H](C(=O)NCC(=O)N[C@@H](CO)C(=O)N[C@@H](CC(N)=O)C(=O)N[C@H](C(=O)N[C@@H](Cc1ccc(O)cc1)C(N)=O)[C@@H](C)O)C(C)C)[C@@H](C)O, also called 14H, 17R, 21P, 27P, 31P) |

— patent US20140087995A1 (published 2014)
